B1: 8F9 (antibody, V domains shown)
VH: QVQLVESGGGVVQPGRSLRLSCAASGFTFSSYGMHWVRQAPGKGLEWVAVIWYDGRNKYHADSVKGRFTISRDNSKNTLYLQMNSLRAEDTAVYYCARDHPVAGTSFDYWGQGTLVTVSS
VL: QSVLTQPPSVSAAPGQKVTISCSGSSSNIGNNYVSWYQQLPGTAPKLLIYDNNKRPSGIPDRFSGSKSGTSATLGITGLQTGDEADYYCGTWDSSLSAVVFGGGTKLTVLG
B2: 9D10 (antibody, V domains shown)
VH: QVQLVESGGGVVQPGRSLRLSCAASGFTFRSYGMHWVRQAPGKGLEWVAVIWYDGRNEYYADSVKGRFTISRDNSKNTLYLRMNSLRAEDTAVYYCARDHPVAGTSFDYWGQGTLVTVSS
VL: QSVLTQPPSVSAAPGQKVTISCSGSSSNIGNNYVSWYQQLPGTAPKLLIYDNNRRPSGIPDRFSGSKSGTSATLGITGLQTGDEADYYCGTWDSSLSAVVFGGGTKLTVLG
B3: 3F4 (antibody, V domains shown)
VH: QVQLVESGGGVVQPGRSLRLSCAASGFIFRSYGMHWVRQAPGKGLEWVAVISYDGSNKYYADSVKGRFTISRDNSKNTLYLQMNSLRAEDTAVYYCARDHPVAGTSFDYWGQGTLVTVSS
VL: QSVLTQPPSVSAAPGQKVTISCSGSSSNIGNNYVSWYQQLPGTAPKLLIYDNNNRPSGIPDRFSGSKSGTSATLGITGLQTGDEADYYCETWDSSLSAGVFGGGTKLTVLG
B4: 1A2 (antibody, V domains shown)
VH: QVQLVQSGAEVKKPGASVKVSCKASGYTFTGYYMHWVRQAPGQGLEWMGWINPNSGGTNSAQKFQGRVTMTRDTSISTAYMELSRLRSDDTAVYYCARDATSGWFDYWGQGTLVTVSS
VL: DIVMTQTPLSSPVTLGQPASISCRSSQSLVYSDGNTYLSWLQQRPGQPPRLLIYKISNRFSGVPDRFSGSGAGTDFTLKISRVEADDVGIYYCMQAIEFPWTFGQGTQVEIKR
B5: 1B5 (antibody, V domains shown)
VH: QVQLVQSGAEVKKPGASVKVSCKASGYTFTAYYMHWVRQAPGQGLEWMGWINPNSGGTNSAQKFQGRVTMTRDTSIRTAYMELSWLRSDDTAVYYCARDATSGWFDFWGQGTPVTVSS
VL: DIVMTQTPLTSPVTLGQPASISCRSSQSLVHYDGNTYLSWLQQRPGQPPRLLIYKISNRFSGVPDRFSGSGAGTDFTLKISRVEAEDVGIYYCMQALEFPWTFGQGTKVEIKR
B6: 3B4 (antibody, V domains shown)
VH: QVQLVQSGAEVKKPGASVKVSCKASGYTFTAYYMHWVRQAPGQGLEWMGWINPNSGGTNSAQKFQGRVTMTRDTSIRTAYMELSWLRSDDTAVYYCARDATSGWFDIWGQGTPVTVSS
VL: DIVMTQTPLSSPVTLGQPASISCRSSQSLVHYDGNTYLSWLQQRPGQPPRLLIYKISNRFSGVPDRFSGSGAGTDFTLKISRVEAEDVGIYYCMQALEFPWTFGQGTKVEIKR
B7: 10H3 (antibody, V domains shown)
VH: QVQLVQSGAEVRKPGASVKVSCKASGYTFTAYYMHWVRQAPGQGLEWMGWINPYSGGTNSAQKFQGRVTMTRDTSISTAYMELSWLRSDDTAVYYCARDATSGWFDFWGQGTLVTVSS
VL: DIVMTQTPLSSPVTLGQPASISCRSSQSLVHYDGNTYLSWLQQRPGQPPRLLIYKISNRFSGVPDRFSGSGAGTDFTLKISRVAAEDVGIYYCMQALEFPWTFGQGTKVEIKR

The binders below were run against biotinylated hu-β-klotho (UniProt Q86Z14 53-996, biotinylated (sites not given)) (assay: Octet BLI).
Chain of biotinylated hu-β-klotho (Q86Z14 53-996): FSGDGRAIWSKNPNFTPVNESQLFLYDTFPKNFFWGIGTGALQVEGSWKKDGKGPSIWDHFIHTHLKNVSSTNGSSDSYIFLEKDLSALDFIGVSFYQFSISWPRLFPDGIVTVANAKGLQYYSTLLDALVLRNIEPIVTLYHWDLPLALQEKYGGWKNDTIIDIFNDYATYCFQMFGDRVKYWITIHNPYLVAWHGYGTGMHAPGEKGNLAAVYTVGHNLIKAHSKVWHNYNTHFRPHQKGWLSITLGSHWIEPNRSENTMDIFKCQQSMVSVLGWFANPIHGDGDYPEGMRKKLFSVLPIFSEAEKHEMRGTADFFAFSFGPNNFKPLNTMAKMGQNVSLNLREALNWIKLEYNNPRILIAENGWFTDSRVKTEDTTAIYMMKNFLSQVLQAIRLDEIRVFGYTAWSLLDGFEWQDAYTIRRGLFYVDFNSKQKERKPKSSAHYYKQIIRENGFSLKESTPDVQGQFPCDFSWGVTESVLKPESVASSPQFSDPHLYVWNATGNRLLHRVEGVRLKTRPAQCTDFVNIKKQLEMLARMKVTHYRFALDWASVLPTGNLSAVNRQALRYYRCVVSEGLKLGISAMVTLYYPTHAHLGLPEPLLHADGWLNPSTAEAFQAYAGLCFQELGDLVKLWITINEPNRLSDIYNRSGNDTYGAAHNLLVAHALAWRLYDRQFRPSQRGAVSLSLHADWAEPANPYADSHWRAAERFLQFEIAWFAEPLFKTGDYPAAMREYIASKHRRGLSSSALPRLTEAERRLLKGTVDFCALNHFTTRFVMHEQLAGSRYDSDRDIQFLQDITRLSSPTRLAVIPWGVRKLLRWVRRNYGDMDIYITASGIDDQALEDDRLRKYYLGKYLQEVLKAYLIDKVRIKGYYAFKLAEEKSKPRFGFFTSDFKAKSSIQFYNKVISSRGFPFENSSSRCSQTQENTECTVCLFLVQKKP

Binder	Kd [nM]
B1	0.422
B2	0.298
B3	0.281
B4	2.14
B5	0.578
B6	6.08
B7	0.563
